Experimental data published in the domain aggregation screens of Martell et al. (2025).

Test: soluble fraction after stress (log2 fold change); higher = more stays soluble; pooled small domains, quantitative proteomics
Conditions: stress: pH 4
Summary of the method: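 Aggregation propensity is read out as the fold change in how much of each domain remains soluble after acid stress. The custom small-domain libraries were pooled, held at pH 4 and analysed with high-throughput quantitative proteomics. On the log2 scale used, higher values mean more of the domain stayed soluble.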

Compared with “HMQNDDLTKLDGIGPYIEQRLNDIGIYNYEQLSKLNTEDIQKITELIDFFPGRIERDNWVSQAQLLKI”, “HMQNDILIQADEIVGDYFDMDKEALKMNKQAVIADIEKRQATAQGDEASALHYAKQKVENEFEDDGSQKD” is higher in “soluble fraction (log2)” value: -0.807 for the first, -0.233 for the second.

Going from “HMQNKFLDIVGEIEVKAVDYYLLKDTSGLVIKFPKNLVFANGLKIADNKIGLTVSLYGAWVHEET” to “HMQNKYIIKQGNSGELVEVLQELLNLKQDGVFGPQTKKAVIAFQQKHKLVADGIVGPMSWRKLNFNPEELF”, the “soluble fraction (log2)” value rises from -0.498 to -0.282.

First: HMQNLISSDEAKNIALQHANLTDNQVTFIKVSKDYDDGIHIYEVEFHYNNREYNYDINAINGTILSYEQ
Second: HMQNNKITIYISGAVNRPGIVTIESDKRLYDAVELLGGTTKEADLNGVNLSVRLEDEQHYIIPKIGEA
The “soluble fraction (log2)” value of the first is higher: -0.173 for the first, -0.491 for the second.

Going from “HMQNNWFYEENGQRKGPVSENEMVQFIKSSVISHGTSVWKQGFPDWLKVENTDLRVHLDNSAP” to “HMQNREQNILDGKSILDKELKRVGLLNQSAAIMAQEMKFNSQDDLFAALGSGATRIGQIINHLQKQS”, the “soluble fraction (log2)” value rises from -0.611 to 0.0793.

Going from “HMQNSMTTTPDVVGKTGTFAEQMLKAANLNVQFAGDSSGKVVAQDVEAGTSAAYGTIITLTMDS” to “HMQNVKIKAEVKGEVISPGVYELDEESRIQDLIDASGGFSDKAYYDNINLSMKLKDEMVLVVYDKDKI”, the “soluble fraction (log2)” value falls from 0.25 to -1.35.

First: HMQPADYSDLYAAAKSAGEADMRAAFALTDKQERTAAVNAARETIKAALSEEQLADANLGSALKKLEAGV
Second: HMQPASPELNNQEKKVLQALPENEVIHIDELSDKIQIPVGELLTVLLSLEMKETVIQEPGKFFRRR
The “soluble fraction (log2)” value of the first is higher: -0.261 for the first, -0.886 for the second.

Going from “HMQPDFLDAKASLALLGVRPQTLYAYVSRGAIRSVPQPGTKAHLYSRSDIERVMARAAARAG” to “HMQPDYRVLYSNFSDKDGGAIVAALEKMNVPYKFSEGGSAILVPAGQVHQARLKLAADGLPK”, the “soluble fraction (log2)” value rises from -0.019 to 0.205.

Going from “HMQPLGHDLTERELDVLALMVTGMNNSEIADKLVVSRSTIKYHVSNILSKLQATSRTEAVAYALQQNLVH” to “HMQPQIDFEIDVEVRASSLRIVAAPNSDVLVATVGRGEHVVQLTYPKDGWVMIRTADDRVGFVPESLLL”, the “soluble fraction (log2)” value rises from -1.41 to -0.254.

Compared with “HMQPQYSVLFSNIEEKDGGSIITLLQQGNVPYKVENGGTTILVPANRANELRLTLAAQGLPK”, “HMQPVLSDAEVNDLKNIAGGERGYNQLMDWAGNNLTAQDAKSYDDVLATGNKAAISFAIKALMGQYEDAN” is lower in “soluble fraction (log2)” value: 0.223 for the first, -0.453 for the second.

“HMQQEAVNLVQSRGQQAIEPVHIMQGVMKVGENVTNFIFQKLGMNGQQVALVVDKQIDSLPKVSGGEPYL” and “HMQQEAVSGKLLQLDLAKKEGRLSTDLGREVLFHIPKPELFVHLSVGQRIIIKLDAGQEAVGV” are within 0.2 log units of each other in “soluble fraction (log2)” value: -0.0637 for the first, 0.0773 for the second.

Going from “HMQQELDAFKLLITVSGVGPKAAMAVLSVLPPDRLSIAVSSGDVKSIQSAQGVGKKTAERIVLELKDKM” to “HMQQIEIEEPITVKNLSAVAGLKASEIIAKLMKLGVMSTINQVMERQHAEEIAGEYGFELVVK”, the “soluble fraction (log2)” value rises from -0.976 to -0.154.

First: HMQQISDPQVLRPMAEEVLHQSQKVVQDYKGGNKNAFHALVGQMMKKTQGKGNPQVIGQVLSELLDE
Second: HMQQKNWIVRDGDGKIYGPFTTEQVLVQIDRGYFVGGEEVALYPGGRWIAISGAPEFYDRLLDALAMEG
The “soluble fraction (log2)” value of the first is higher: -0.284 for the first, -1.29 for the second.

First: HMQQQLLHIVFGGELKDVTGIEFEDLSKMDFVGAFSNYKDAYDAWKSAAQRTVDHAEMRYFILHAHKLL
Second: HMQQRTVEHVDTAVEALALSIGERAGVDLPYMAHLTGKTQEDLIEDLTGVIFPVPGTEPLRYVTADDYLS
The “soluble fraction (log2)” value of the first is lower: -2.31 for the first, -0.835 for the second.

Going from “HMQQSVSSLVRRYMLQTIPGINFSLKSTALALNMSDRTLQRKLLSENTSYQIILDDVRKELAIKYLKE” to “HMQQVIQSGQKVQLMATDGSFQVSAEGVALKNGSVGEVIGVRMPSGRVISGVVSASGAVEVR”, the “soluble fraction (log2)” value rises from -0.43 to 0.0769.

“HMQQVLGDVNEDDKVDFLDAIVVLRHDAEIIQLTDNQMKAAEVNKDGKVDFLDAIMILRYDAEIIGS” and “HMQRDDMQIDRLIQIVFLLLSRNNLTAKQLAEELGVSTRTIYRDINILSVAGIPITSQKGYGGGLSLLQG” are within 0.2 log units of each other in “soluble fraction (log2)” value: -0.196 for the first, -0.261 for the second.

First: HMQRDELRYDQFLTALQNKEFTQLNVRFDDYTYLVTGTFQSGRPFSTRGPVSEEFIRLIESSGVQVTWLPM
Second: HMQRDERYVYHTVLAGETIYSLSRKFNVTMDELLESNPALRSGVLTTGSEIRVLKAQMAQNFD
The “soluble fraction (log2)” value of the first is lower: -1.28 for the first, 0.383 for the second.

First: HMQRQGTVATQQTPLNIRSQPSLSAQVIGQAPKGATVAILGESGDWYQIRYQNITGYSSKQYI
Second: HMQRSVEDVFVQLRNGMDTYDMTQIEDALRILHGMELSTAQRDLLDKVQEAYNDLEYETGAALLAGFERIK
The “soluble fraction (log2)” value of the first is higher: ≥ 0.43 for the first, -0.981 for the second.

Going from “HMQRYFINEPVPEDQRLVLPKDIAHHLVDVLRAEQNDELEVALNDQKVYLARLISLNPATVELQSDLG” to “HMQRYFLEEAYQPSEKFELSAEAFHHIVHVMRMKPKDRVYLAFSDQQVIIAEITEITEEKVYLTEIEKEE”, the “soluble fraction (log2)” value falls from -0.176 to -1.63.

First: HMQRYYDVLGLQKGVSPEELKKTYRELSKKYHPDAHHNSPLRDLAEAKFKEINEAYEKIKEFLDNNF
Second: HMQSAKLSYSDFMQKVNAGDVVSVKIQGPKISGVTTGGGKFMTYAPEDPTLVSTLMQKKVEVMAEP
The “soluble fraction (log2)” value of the first is lower: -0.597 for the first, 0.173 for the second.

“HMQSAMALTKDLIEQQGKYYHRGQPFTGVGFAKNKKGKFVTEEPFKNGLLHGKRVNYDHNGHVLAREK” and “HMQSEESTHIGERMLNQALRAMHVEPSAVKEKQWEKLIRDYSVKNKQDILTDIGLGKRQSVMVAHQLLAI” are within 0.2 log units of each other in “soluble fraction (log2)” value: -0.12 for the first, -0.028 for the second.

“HMQSEISRIGRILKERRLQLGYTQEYAAEKAGISYSYYTKIERGQQLPSLEVAMVLSKTFSLSMDRWL” and “HMQSFIEELLPVVDNFERSLAVVDPSDEIKNFLKGYEMIYNQLMEVLKSQGVEVIKTEGEEFDPNFHQA” are within 0.2 log units of each other in “soluble fraction (log2)” value: -0.599 for the first, -0.776 for the second.

First: HMQSHIVPDVKSQHIAQAKALLESKQMKAVVIDSNFVKGLPAGIVLDQTPIGGARVKENRTIYLTINTL
Second: HMQSMEIDENEIPSIDKLSEYIEYFKRIYNALFDDKQLAITNIDVLERHFANNFNTLRFKMDE
The “soluble fraction (log2)” value of the first is higher: 0.0867 for the first, -0.534 for the second.

Going from “HMQSNDAGELEAVVKGIIDANPKVVADYLAGNQKVVSFFVGQAMKATKGKANPKMVSEILGKLL” to “HMQSQIAQLYNPLLGYVKKRINSREDAEDLTQDIFLKLSKSNKDGVDNLKSWLYTIAKNTITDYYRKKKII”, the “soluble fraction (log2)” value falls from ≥ 0.43 to -0.0414.

Going from “HMQSREISYSDFVASVERGEVATVILDGENIRFKGGDNVEYVTVRPADTNVTDLLIENQVVVRAEK” to “HMQSTVSTHQKTLALDTAQSGIPVFPVSSTHKRPLTDHGYKDATADADAVRKIWQQFPSAFV”, the “soluble fraction (log2)” value rises from -0.824 to 0.22.

Compared with “HMQSVKTQPLRDWLLAHFDKPYPDDEDKVRLAEASGMTRAQVGNWFINARVRTWRPMVLDLGEEIERESV”, “HMQTEFVISSGEQPKRLDVFLLQREPYLSRAALQRMIAAGWVRVNNHLAKSSQRIKAGDVIVFD” is higher in “soluble fraction (log2)” value: -0.521 for the first, 0.0697 for the second.

Going from “HMQTFGTMIAALRKEQGMTQLELAEKMGVTDKAVSKWERDLSFPDVNSLPKLAEIFHVSVDEL” to “HMQTLGADLRALRKARGLTLTDMAETLGRSVGWLSQVERDLSEPSITDLRHMARTLGVSVSMLFS”, the “soluble fraction (log2)” value falls from 0.216 to -0.553.

Compared with “HMQTLQNNLKQIRSRVGLTQGELASRAGISRQAYSTLESGNANPSTEVSLRLAEALNERIESLFFLANQ”, “HMQTSETVYTTDKVNVRAGADTSSDKLGSVEKGTSLTRTGTDGDWSIIDYNGTTGYIKSEYLSATAPE” is higher in “soluble fraction (log2)” value: -0.846 for the first, 0.316 for the second.

“HMQTTKTGTITASSLYVRSGASTSHKVLGTVSKGKTVQIKDTQDGWHKISYNGDHGWVSGKYVSTT” and “HMQTTVHLSPEEMVIMNALKQESPIDLPILRAQVEMSNKLWDTSMKNLSKLGQLKVEKIGEQVSVSLI” cannot be ordered by “soluble fraction (log2)” value: ≥ 0.43 for the first, ≥ 0.43 for the second.

“HMQVAPDLMQRLTSQGHVDEKLSDALVHARQITNFEGRRRQMQFIGKLMRKLSEESIEAVKDALNEQRM” and “HMQVDENNINKRIDKYLSENTEYSRSTIQKMIDNGNITVNSKPTKSSYKLELNDIITIDNNFKE” are within 0.2 log units of each other in “soluble fraction (log2)” value: -0.244 for the first, -0.0731 for the second.

Going from “HMQVEYTRGELIQDLEGGKIVYAGISPSRETPTGEVNFILDSGLTRTLYVTDVSEIEQLLISYDIDPEVKK” to “HMQVFDSNEIDEVVKKVIENNPQAVADFKKGKSNALQFLAGQVMRETKGRFNPNVVQERIRLLLT”, the “soluble fraction (log2)” value rises from -1.63 to 0.256.

Compared with “HMQVLLTRREKEILKLIAEGLTSAEIGKRLFISTTTVDTHRKHLLEKLKAGNTAILIKTAVQLDLI”, “HMQVPWYQRLKEKRLEYGVSQNKLATHIGISRQYMSEIETGKVTPSDSLQATLFDILEQFNPDA” is lower in “soluble fraction (log2)” value: -0.223 for the first, -0.74 for the second.

Compared with “HMQVRVERSRDKVVISGVNYYIHPVRKGETVYSIARAYGITTQDLVRENPSAAEGLKEGQSIRIPERLVD”, “HMQVSDEGPIKAILQEVLDKSPTQLADYASGKVKLRQYFFGEAMKALKGKANPQVINKLLDEMLPPVAA” is lower in “soluble fraction (log2)” value: 0.22 for the first, -0.178 for the second.

Going from “HMQVSDVTELRTILEKVITENESVATEFKEGKDAAMNFLVGQGMKATRGAADPALLKEIITGIL” to “HMQVSITGYLGGEKIGLFDDAKFKALAAKQGIAIDYRKAGSPAMMDADRKGMDYLFPSSRAAVEYGNAKGV”, the “soluble fraction (log2)” value rises from -0.358 to 0.144.

“HMQVTDTGTIEGEIDKVLAANPDRVTEYHDGKEKILGWFVGQVMQTTKGKANPQMVNQLFLEKLK” and “HMQVTPQVLRLLDVLGDKELSLRQIAEALGLSDRKNIMRNYVVPALDSGRVVRTVPNKPNSRFQKYRK” are within 0.2 log units of each other in “soluble fraction (log2)” value: -0.00465 for the first, 0.0808 for the second.

First: HMQYDALVLNLLQEKNLTSESLKDAQRAFAKSHNLSTLPSKSQILQAYFQLLEQGKIEKNPDFELLL
Second: HMQYFDIETEIQKFIKSENNLSDFDKETLQSFLYQLSKGSPEENTAKKVVDILNKFLPLTTAIINMIKALT
The “soluble fraction (log2)” value of the first is higher: 0.0152 for the first, -0.381 for the second.

“HMQYYITKIANYDQVSPNLLVRTAEGQYMVKTNADILDTDVTKLTEEEIRKDWGYLFENGFSELV” and “HMRAAEPTTDAQRDRRRRIVLTAMTMLQERGYDEIQMRDVAQQAGVALGTLYRYFPSKEQLFAHVLVE” are within 0.2 log units of each other in “soluble fraction (log2)” value: -0.681 for the first, -0.68 for the second.

Going from “HMRAAFEHLTIGQTVSGLVKSQARGVSLVEIEGQTVAMRLPQPVAVGDTLRLRFAGHMPQPVFLLDT” to “HMRADYVGGLDPAGDNFLALRTGPGSGYAMILPMGPGTFVTVLRRNGKWLLVELEDGTRGWAYGSYILG”, the “soluble fraction (log2)” value falls from -0.0299 to -1.16.

First: HMRAGALTTLTERERNVFDLVVTGHSNPEIARQLSIADVTVKTHVGHILSKLGVRDRVHLVIWAHRQGLAD
Second: HMRAMWENLFFQYKEGFLPEEYYKQGIATGIRLAGPKFVEMNIPMQKEFEDEVHRLLAEHEKSVK
The “soluble fraction (log2)” value of the first is higher: 0.0561 for the first, -0.795 for the second.
